This experiment has as its target recombinant Fe-S cluster assembly ATP-binding protein (SufC) (Streptococcus pneumoniae strain D39). Put plainly: SPR; Biacore X100; rSufC immobilised on a CM5 chip (1000 RU); plasminogen or BSA flowed at 6.25 to 100 nM, 25 °C, 100 mM HEPES pH 7.4, 150 mM NaCl, 3 mM EDTA, 0.005% surfactant P20; apparent constants.

pKd: −log10 of the molar value.

In general, pKd refers to −log10 of the Kd, conventionally taken in molar units. As a reminder, the koff is the first-order rate constant of dissociation. As usually defined, the kon is the second-order rate constant of association.

As to “plasminogen from human plasma (natural protein)”, the negative logarithm of the Kd (pKd) is 7.10, the koff worked out at 0.00156 s⁻¹ and the association rate constant (kon) turned out to be 19600 M⁻¹ s⁻¹.

Values taken from article PMC10745484.
